Experimental data taken from US20220396612A1 (UNIVERSIT DE TOURS, published 2022).

B1: monoclonal antibody ‘F6’ secreted by clone BK6A2F6 (antibody)
heavy: EVQLQQSGPELVKPGASVKISCKASGYSFTGYFMNWVKQSHGKSLEWIGRINPYNGDTFYNQKFKGKATLTVDKSSSTAHMELLSLTSEDSAVYYCGSYYYGDYFDYWGQGTTLTVSSAKTTPPSVYPLAPGSAAQTNSMVTLGCLVKGYFPEPVTVTWNSGSLSSGVHTFPAVLQSDLYTLSSSVTVPSSTWPSETVTCNVAHPASSTKVDKKIVPRDCGCKPCICTVPEVSSVFIFPPKPKDVLTITLTPKVTCVVVDISKDDPEVQFSWFVDDVEVHTAQTQPREEQFNSTFRSVSELPIMHQDWLNGKEFKCRVNSAAFPAPIEKTISKTKGRPKAPQVYTIPPPKEQMAKDKVSLTCMITDFFPEDITVEWQWNGQPAENYKNTQPIMDTDGSYFVYSKLNVQKSNWEAGNTFTCSVLHEGLHNHHTEKSLSHSPGK
light: […]
B2: monoclonal antibody ‘H6’ secreted by clone BK6A2H6 (antibody, V domains shown)
VH: EVQLQQSGPELVKPGASVKISCKASGYSFTGYFMNWVKQSHGKSLEWIGRINPYNGDTFYNQKFKGKATLTVDKSSSTAHMELLSLTSEDSAVYYCGSYYYGDYFDYWGQGTTLTVSS
VL: SIVMTQIPKFLLVSEGDRVTITCKASQSVSNDVAWYQQKSGQSPKLLIYYASNRYTGVPDRFTGSGYGTDFTFTISTVQAEDLAVYFCQQDYSSPLTFGAGTKLELKR

How the values were obtained:
[1] = target: T1, virus-like particles (VLPs) of BK polyomavirus VP-1 protein, serotype Ia (BK virus (BKPyV), serotype Ia, UniProt P03088 1-361); assay: ELISA on coated VLP; supernatant 1/10
T1 construct: self-assembled native VLPs coated on ELISA plates; also called VLP Ia; BKV VP-1, serotype Ia
T1 chain: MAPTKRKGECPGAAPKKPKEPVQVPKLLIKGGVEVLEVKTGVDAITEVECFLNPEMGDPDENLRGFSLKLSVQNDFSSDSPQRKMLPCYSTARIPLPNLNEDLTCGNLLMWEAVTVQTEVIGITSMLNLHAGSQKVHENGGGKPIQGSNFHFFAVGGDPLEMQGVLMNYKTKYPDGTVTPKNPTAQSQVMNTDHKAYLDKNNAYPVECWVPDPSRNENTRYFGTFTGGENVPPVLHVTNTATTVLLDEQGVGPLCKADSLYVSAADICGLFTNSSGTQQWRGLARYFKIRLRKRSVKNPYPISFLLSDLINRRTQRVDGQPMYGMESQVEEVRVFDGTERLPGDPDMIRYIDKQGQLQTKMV
Description: (§1) To do this, the VLPs produced were deposited at a concentration of 1 μg/mL in PBS and incubated overnight at +4° C. The wells were then blocked for 1 h at +37° C. with a PBS/FCS (phosphate-buffered saline/fetal calf serum) mixture. After dilution in a dilution buffer containing FCS, PBS and Tween® 20, the various hybridoma culture supernatants were added for 1 h at +37° C. The wells were washed four times in a row with Wash Buffer and a secondary anti-mouse antibody coupled to peroxidase was added to the 1:2000 dilution for 1 h at +37° C. The wells were washed four more times and the substrate (OPD (ortho phenylene diamine)+H₂O₂) was added for 30 min at room temperature. A stop solution (H₂SO₄ 4N) was then added and each well was read by measuring the absorbance at 492 nm with a spectrophotometer. The value obtained for the average of the control wells (PBS in the first step) is subtracted from the optical density values obtained for each well.

[2] = target: T2, virus-like particles (VLPs) of BK polyomavirus VP-1 protein, serotype Ib2 (BK virus (BKPyV), serotype Ib2, PA …, UniProt P03088 1-362); assay: ELISA on coated VLP; supernatant 1/10
T2 construct: native VLPs; also the immunogen; also called VLP Ib2; BK Ib2
T2 chain: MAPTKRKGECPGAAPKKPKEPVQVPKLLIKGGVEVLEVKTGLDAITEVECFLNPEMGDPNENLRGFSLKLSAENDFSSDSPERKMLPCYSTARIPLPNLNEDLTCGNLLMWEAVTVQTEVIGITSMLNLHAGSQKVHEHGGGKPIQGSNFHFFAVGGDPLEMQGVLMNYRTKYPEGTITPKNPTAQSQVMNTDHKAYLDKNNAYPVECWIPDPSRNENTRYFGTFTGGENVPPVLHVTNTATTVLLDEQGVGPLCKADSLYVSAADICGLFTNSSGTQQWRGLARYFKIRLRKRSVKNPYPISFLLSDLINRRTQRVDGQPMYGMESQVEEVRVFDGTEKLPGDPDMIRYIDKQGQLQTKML
Description: as §1

[3] = target: T3, virus-like particles (VLPs) of BK polyomavirus VP-1 protein, serotype II (BK virus (BKPyV), serotype II, UniProt P14996 1-362); assay: ELISA on coated VLP; supernatant 1/10
T3 construct: native VLPs; also called VLP II
T3 chain: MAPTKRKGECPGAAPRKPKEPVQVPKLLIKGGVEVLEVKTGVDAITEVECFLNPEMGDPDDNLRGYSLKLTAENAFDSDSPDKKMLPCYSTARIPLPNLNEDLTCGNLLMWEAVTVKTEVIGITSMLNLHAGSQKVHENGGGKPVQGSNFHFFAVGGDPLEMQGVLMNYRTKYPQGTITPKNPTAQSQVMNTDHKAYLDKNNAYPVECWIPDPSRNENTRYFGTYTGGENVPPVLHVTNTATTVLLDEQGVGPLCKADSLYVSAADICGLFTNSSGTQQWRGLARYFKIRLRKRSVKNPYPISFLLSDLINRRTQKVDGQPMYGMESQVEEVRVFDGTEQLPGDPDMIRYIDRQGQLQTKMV
Description: as §1

[4] = target: T4, virus-like particles (VLPs) of BK polyomavirus VP-1 protein, serotype IV (BK virus (BKPyV), serotype IV, UniProt P14996 1-362); assay: ELISA on coated VLP; supernatant 1/10
T4 construct: native VLPs; also called VLP IV
T4 chain: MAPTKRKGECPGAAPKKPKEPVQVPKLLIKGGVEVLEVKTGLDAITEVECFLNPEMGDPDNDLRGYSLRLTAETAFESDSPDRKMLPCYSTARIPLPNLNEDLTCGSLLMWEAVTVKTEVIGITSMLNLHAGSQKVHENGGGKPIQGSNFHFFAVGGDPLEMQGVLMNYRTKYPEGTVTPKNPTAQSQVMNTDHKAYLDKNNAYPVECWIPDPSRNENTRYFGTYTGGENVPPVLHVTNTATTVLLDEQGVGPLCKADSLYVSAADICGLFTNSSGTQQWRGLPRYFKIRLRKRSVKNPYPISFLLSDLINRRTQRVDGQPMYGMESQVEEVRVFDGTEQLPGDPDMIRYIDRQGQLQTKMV
Description: as §1

[5] = target: T1, virus-like particles (VLPs) of BK …; assay: ELISA on coated VLP; supernatant 1/80
Description: as §1

[6] = target: T2, virus-like particles (VLPs) of BK …; assay: ELISA on coated VLP; supernatant 1/80
Description: as §1

[7] = target: T3, virus-like particles (VLPs) of BK …; assay: ELISA on coated VLP; supernatant 1/80
Description: as §1

[8] = target: T4, virus-like particles (VLPs) of BK …; assay: ELISA on coated VLP; supernatant 1/80
Description: as §1

[9] = target: T1, virus-like particles (VLPs) of BK …; assay: ELISA on coated VLP; supernatant 1/640
Description: as §1

[10] = target: T2, virus-like particles (VLPs) of BK …; assay: ELISA on coated VLP; supernatant 1/640
Description: as §1

[11] = target: T3, virus-like particles (VLPs) of BK …; assay: ELISA on coated VLP; supernatant 1/640
Description: as §1

[12] = target: T4, virus-like particles (VLPs) of BK …; assay: ELISA on coated VLP; supernatant 1/640
Description: as §1

[13] = target: T1, virus-like particles (VLPs) of BK …; assay: ELISA on coated VLP; supernatant 1/5 120
Description: as §1

| Binder | OD 492 nm [1] [OD] | OD 492 nm [2] [OD] | OD 492 nm [3] [OD] | OD 492 nm [4] [OD] | OD 492 nm [5] [OD] | OD 492 nm [6] [OD] | OD 492 nm [7] [OD] | OD 492 nm [8] [OD] | OD 492 nm [9] [OD] | OD 492 nm [10] [OD] | OD 492 nm [11] [OD] | OD 492 nm [12] [OD] | OD 492 nm [13] [OD] |
| --- | --- | --- | --- | --- | --- | --- | --- | --- | --- | --- | --- | --- | --- |
| B1 | 3.08 | 2.7 | 3 | 3.25 | 3.26 | 0.59 | 0.44 | 3.11 | 3.07 | 0.19 | 0.14 | 2.86 | 0.57 |
| B2 | 2.99 | 1.71 | 2.96 | 3.29 | 3.13 | 0.49 | 0.22 | 3.14 | 2.49 | 0.17 | 0.08 | 1.59 | 0.86 |
